For four molecules, IC50 results are on record in patent publication US20210300985A1 (published 2021).

Targets include HLA-DRB1*0301 (human); HLA-DRB1*0701 (human); HLA-DRB1*0401 (human); HLA-DRB1*1501 (human); HLA-DRB1*0101 (human); HLA-DRB1*1101 (human); HLA-DRB1*1301 (human).
Common to all, as to assay: competition binding; FIG. 35A

A word on the IC50: it is the concentration that inhibits the measured activity by half. A high value points to a need for much substance.

In the case of ESNIMSTINGYVPES [SEQ ID NO: 5 (ESNIMSTINGYVPES)], the IC50 was determined as 80.5 µM with HLA-DRB1*0301, 2.79 µM with HLA-DRB1*0701, 96.4 µM with HLA-DRB1*0401 and 4.22 µM in the assay with HLA-DRB1*1501.
Take KIVFKNMASRPYSIY [SEQ ID NO: 3 (KIVFKNMASRPYSIY)]: the IC50 turned out to be 2.17 µM with HLA-DRB1*0101; 78.6 µM with HLA-DRB1*0301; 4.36 µM with HLA-DRB1*1101; 7.03 µM with HLA-DRB1*0701; 20.1 µM with HLA-DRB1*0401; 2.96 µM with HLA-DRB1*1301. The molecule also had an IC50 in the assay with HLA-DRB1*1501 of 2.69 µM.
In the case of EKDIHSGLIGPLLI [SEQ ID NO: 6 (EKDIHSGLIGPLLI)], the IC50 worked out at 1.92 µM with HLA-DRB1*0101 and 2.02 µM in the assay with HLA-DRB1*1501.
Take SHEFHAINGMIYSLP [SEQ ID NO: 7 (SHEFHAINGMIYSLP)]: the IC50 with HLA-DRB1*0101 was less than 1 µM; in the assay with HLA-DRB1*1101, 33.7 µM; with HLA-DRB1*0701 it was less than 1 µM; with HLA-DRB1*0401 it was 30.6 µM; with HLA-DRB1*1301 it was 84.4 µM; with HLA-DRB1*1501, less than 1 µM.
